Test results published in PMC12263435, “Mechanistic basis for PYROXD1-mediated protection of the human tRNA ligase complex against oxidative inactivation” (Nature Structural & Molecular Biology, 2025).

T1: RTCB (with Archease) (Homo sapiens, UniProt Q9Y3I0)
T1 construct: RTCB, N-terminal tag cut by TEV, Sf9; Archease residues 27-168, His6-MBP cut, E. coli; with Protein archease
T1 sequence (Q9Y3I0 1-505): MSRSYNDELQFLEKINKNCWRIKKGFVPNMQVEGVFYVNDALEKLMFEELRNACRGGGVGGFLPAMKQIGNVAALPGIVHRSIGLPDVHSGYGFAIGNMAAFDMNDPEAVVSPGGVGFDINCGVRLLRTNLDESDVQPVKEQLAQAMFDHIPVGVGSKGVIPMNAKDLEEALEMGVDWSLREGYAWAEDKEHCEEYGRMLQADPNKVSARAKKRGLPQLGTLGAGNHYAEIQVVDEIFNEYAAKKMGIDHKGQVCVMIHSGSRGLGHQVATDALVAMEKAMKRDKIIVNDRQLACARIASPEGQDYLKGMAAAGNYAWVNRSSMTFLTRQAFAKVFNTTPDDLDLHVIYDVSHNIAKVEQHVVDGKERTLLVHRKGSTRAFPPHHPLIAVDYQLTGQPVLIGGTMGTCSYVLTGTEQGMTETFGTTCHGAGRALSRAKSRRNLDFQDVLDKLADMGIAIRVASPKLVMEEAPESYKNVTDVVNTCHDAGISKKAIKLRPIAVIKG
T1 sequence (Q8IWT0 27-167 partner): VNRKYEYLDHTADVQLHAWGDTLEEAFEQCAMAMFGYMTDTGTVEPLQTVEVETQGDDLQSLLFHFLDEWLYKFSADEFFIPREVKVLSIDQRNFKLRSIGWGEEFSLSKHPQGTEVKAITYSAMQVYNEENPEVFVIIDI

T2: StrepII–GFP–RTCB (human, UniProt Q9Y3I0 1-505)
T2 construct: human RTCB (UniProt Q9Y3I0), catalytic subunit of the tRNA ligase complex; inserted into the 438-Rgfp plasmid; a TEV site lies between GFP and RTCB; In the dissociation assay it is called 2× StrepII–GFP–RTCB; also called immobilized RTCB; 2× StrepII–GFP–RTCB; source: Sf9 insect cells (baculovirus), purified (Strep-Tactin, SEC); not shown: StrepII, N-terminal, kept; super folder green fluorescent …
T2 sequence: T1 sequence (Q9Y3I0 1-505)

T3: RTCB (human, UniProt Q9Y3I0 1-505)
T3 construct: human RTCB (UniProt Q9Y3I0); inserted into the 438B plasmid (N-terminal hexahistidine tag, TEV site); the tag is removed by TEV in either case; also called apo-RTCB; un-guanylylated RTCB; source: Sf9 insect cells (baculovirus), purified (Ni-NTA, TEV cleavage, SEC); not shown: His6, N-terminal, cleaved
T3 sequence: T1 sequence (Q9Y3I0 1-505)

B1: PYROXD1 (enzyme, human)
chain: MEAARPPPTAGKFVVVGGGIAGVTCAEQLATHFPSEDILLVTASPVIKAVTNFKQISKILEEFDVEEQSSTMLGKRFPNIKVIESGVKQLKSEEHCIVTEDGNQHVYKKLCLCAGAKPKLICEGNPYVLGIRDTDSAQEFQKQLTKAKRIMIIGNGGIALELVYEIEGCEVIWAIKDKAIGNTFFDAGAAEFLTSKLIAEKSEAKIAHKRTRYTTEGRKKEARSKSKADNVGSALGPDWHEGLNLKGTKEFSHKIHLETMCEVKKIYLQDEFRILKKKSFTFPRDHKSVTADTEMWPVYVELTNEKIYGCDFIVSATGVTPNVEPFLHGNSFDLGEDGGLKVDDHMHTSLPDIYAAGDICTTSWQLSPVWQQMRLWTQARQMGWYAAKCMAAASSGDSIDMDFSFELFAHVTKFFNYKVVLLGKYNAQGLGSDHELMLRCTKGREYIKVVMQNGRMMGAVLIGETDLEETFENLILNQMNLSSYGEDLLDPNIDIEDYFD
notes: human PYROXD1 (UniProt Q8WU10), amplified from HeLa cDNA, in pGEX-6P-1; FAD-containing flavoprotein; also called wild-type PYROXD1; WT; source: E. coli BL21(DE3), purified (Glutathione Sepharose, 3C cleavage, SEC); not shown: GST, N-terminal, cleaved

Assays:
RTCB (with Archease) = target: T1, RTCB (with Archease); test: guanylylation of RTCB, intact-protein LC-MS; format: biochemical; details: covalent GMP adduct on RTCB His428, 2.5 mM MnCl2, 0.5 mM GTP, 20 mM HEPES pH 8.0, 25 °C
purified protein = substrate: NC(=O)C1=CN([C@@H]2O[C@H](COP(=O)(O)OP(=O)(O)OC[C@H]3O[C@@H](n4cnc5c(N)ncnc54)[C@H](O)[C@@H]3O)[C@@H](O)[C@H]2O)C=CC1; test: purified protein; format: biochemical, Homo sapiens; details: aerobic (O2 as acceptor), 20 mM Tris-HCl pH 8.0, 150 mM KCl, 0.05% Tween-20, 22 °C
StrepII–GFP–RTCB = target: T2, StrepII–GFP–RTCB; test: pull-down; dissociation kinetics: complex formed with 0.5 mM NADH and 5 mM MgCl2, held on Strep-Tactin beads via StrepII–GFP–RTCB, NADH and unbound PYROXD1 washed out, bound PYROXD1 followed over time under aerobic conditions; Coomassie Blue; details: both partners purified
RTCB = target: T3, RTCB; test: cryo-EM structure; 100 µM RTCB mixed 1:1 with 100 µM PYROXD1 in 20 mM HEPES pH 8.0, 150 mM NaCl, 0.5 mM TCEP, 5 mM MgCl2, 0.5 mM NADH; SEC; single-particle cryo-EM; details: both partners purified

| Molecule | guanylylation of RTCB, intact-protein LC-MS (RTCB (with Archease)) | Km (purified protein) | half-life of the complex upon NADH removal (StrepII–GFP–RTCB) | stoichiometry N (RTCB) |
| --- | --- | --- | --- | --- |
| Nc1nc2c(ncn2[C@@H]2O[C@H](COP(=O)(O)OP(=O)(O)OP(=O)(O)O)[C@@H](O)[C@H]2O)c(=O)[nH]1 [GTP] | generating a mixture of guanylylated and un-guanylylated RTCB |  |  |  |
| B1 |  | 611.0 ± 98.3 µM | ~2 min | 1 |
